{
  "source": "patent US20100173800",
  "biological_target": "MuA transposase (bacteriophage Mu) (UniProt P07636)",
  "sequence (P07636 whole entry)": "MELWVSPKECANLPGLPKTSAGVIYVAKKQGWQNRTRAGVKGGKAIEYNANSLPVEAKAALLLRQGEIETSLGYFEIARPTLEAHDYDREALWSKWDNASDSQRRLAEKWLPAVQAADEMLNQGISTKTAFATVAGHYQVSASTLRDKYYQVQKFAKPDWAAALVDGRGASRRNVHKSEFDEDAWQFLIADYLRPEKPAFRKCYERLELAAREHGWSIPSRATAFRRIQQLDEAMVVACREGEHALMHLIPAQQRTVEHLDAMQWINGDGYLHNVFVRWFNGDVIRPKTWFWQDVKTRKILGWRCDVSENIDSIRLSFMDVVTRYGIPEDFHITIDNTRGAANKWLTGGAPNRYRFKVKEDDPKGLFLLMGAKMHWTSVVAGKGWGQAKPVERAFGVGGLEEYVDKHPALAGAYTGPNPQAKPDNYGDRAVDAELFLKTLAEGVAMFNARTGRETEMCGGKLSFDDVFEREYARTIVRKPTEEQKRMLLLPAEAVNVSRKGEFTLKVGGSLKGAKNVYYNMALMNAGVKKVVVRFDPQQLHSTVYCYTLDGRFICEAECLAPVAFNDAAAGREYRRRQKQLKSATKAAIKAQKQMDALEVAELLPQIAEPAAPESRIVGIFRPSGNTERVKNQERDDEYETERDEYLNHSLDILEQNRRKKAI",
  "assay": "cell_activity",
  "conditions": "HeLa electroporation; linear transposon about 100 cfu/ug; 5 bp target duplication in sequenced clones (Table 1)",
  "data": [
    {"substance": "Kan/Neo-Mu transposon (Kan/Neo-LoxP-Mu 2135 bp or Kan/Neo-p15A-Mu 2795 bp)", "values": [
      {"measurement": "activity", "result": 2400, "unit": "cfu/µg DNA"}
    ]}
  ]
}
